Laboratory results published in patent publication US20120178693A1.

Target: CMK-inhibited FVII (human Factor VII treated with a 'Phe-Pro-Arg' peptide based chloromethylketone inhibitor) (UniProt P08709)
Chain of UniProt P08709 (P08709 61-466): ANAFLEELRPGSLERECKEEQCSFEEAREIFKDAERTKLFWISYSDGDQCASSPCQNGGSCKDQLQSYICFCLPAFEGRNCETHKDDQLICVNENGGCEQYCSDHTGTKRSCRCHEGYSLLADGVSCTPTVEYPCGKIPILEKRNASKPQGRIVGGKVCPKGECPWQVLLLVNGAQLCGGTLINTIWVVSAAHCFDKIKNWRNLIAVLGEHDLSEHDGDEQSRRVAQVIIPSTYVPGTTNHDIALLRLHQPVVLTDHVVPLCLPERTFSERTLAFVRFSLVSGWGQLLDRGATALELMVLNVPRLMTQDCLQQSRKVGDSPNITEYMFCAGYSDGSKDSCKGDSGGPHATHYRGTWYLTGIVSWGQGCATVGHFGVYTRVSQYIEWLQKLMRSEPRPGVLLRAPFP

## thrombin
  activation of FVII by thrombin (rate of hydrolysis of the chromogenic substrate Chromozym-tPA): a low activation of FVII by thrombin was measured
